{"source": "the nanobody polyreactivity screen of Harvey et al. (2022)", "data": [{"experiment": "yeast display, Sf9 membrane polyspecificity reagent, FACS + sequencing; frameworks hold sequencing errors", "procedure,_shortened": "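Nanobodies came from a synthetic yeast display library in Saccharomyces cerevisiae BJ5465, induced with galactose for 36–48 hours and stained for 1 hour at 4 °C with 10% biotinylated, detergent-solubilized Sf9 membrane reagent. Cells were enriched on streptavidin microbeads and then FACS-sorted, with low and high (top ~1%) gates set on anti-HA fluorescence for expression and streptavidin fluorescence for reagent binding. Each polyreactivity label reflects the gate a clone came from. Genes were amplified by colony PCR, sequenced by MiSeq 2 × 250 and filtered by CDR length.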", "values": [{"sequence": "QVQLVESGGGLVQAGGSLRLSCAASGFTFYIYAMGWYRQAPGKERELVASISARGGSTYYADSVKGRFTISRDNAKNTVYLQMNSLKPEDTAVYYCNALYNYAEIYGRGYWGQGTQVTVSS", "polyreactivity (PSR sort gate)": "high polyreactivity"}, {"sequence": "QVQLVESGGGLVQAGGSLRLSCAASGLTIDRNAMGWYRQAPGKERELVAAINWRGSRTYYADSVKGRFTISRDNAKNTVYLQMNSLKPEDTAVYYCAADWHTTYDYWGQVTQVTVSS", "polyreactivity (PSR sort gate)": "high polyreactivity"}, {"sequence": "QVQLVESGGGIVQAGGSLRLSCAASGRIFVRNAMGWYRQARGKERELVAAISWSGGTNYADSVKGSFTISRDNAKNTVYLQMNILKPEDTAVYYCAALSVWSYYTYYYWGQGTQVTVSS", "polyreactivity (PSR sort gate)": "high polyreactivity"}, {"sequence": "QVQLVESGGGLVQAGGSLRLSCAASGRTFGHNAMGWYRQAPGKEREFVAAITYSGVRTFYADSVKGRFTISRDNAKNTVYLQMNSLKPEDTAVFYCAAYYPSQDYSGFWSDTYEYWGQGTQVTVSS", "polyreactivity (PSR sort gate)": "low polyreactivity"}, {"sequence": "QVQLVESGAGLVQAGGSLRLSCAASGRIFQYNAMGWYRQAPGKERELVAAISYSTTRTYYAESVKSRFTISRDNAKITVYLQMKSLKPEVSGVYYCAARGYFWSSYKYDYWGLGTQVTVSS", "polyreactivity (PSR sort gate)": "high polyreactivity"}, {"sequence": "QVQLVESGGGLVQAGGSLRLSCAASGRTFTWYAMGWYRQAPGKEREFVAAISFSGGSTYYADSVKGRFTISRDYAKNTVFLQMNSLKPEDTAVYYCARPSGDAWEGPRMDYWGQGTQVTVSS", "polyreactivity (PSR sort gate)": "low polyreactivity"}, {"sequence": "QVQLVESGGGRVQAGGSLRLSCAASGITFDANAMGWDRQAPGKERELVARISSGGSTNYADSVKGRFTISRDNAKNTVYLQMNSLKPEDTAVYYCAKSYQYGFDYWGQGTQVNVSS", "polyreactivity (PSR sort gate)": "low polyreactivity"}, {"sequence": "QVQLVESGGGLVQAGGSLRLSCAASGFTFWYYAMGWYRQAPGKERELVAAITYNGDRTYYADSVKGRFTISRDNAKNTVYLQMNSLKPEDTAVYYCAAAFVSVRKRYGYWGQGTQVTVSS", "polyreactivity (PSR sort gate)": "high polyreactivity"}, {"sequence": "QVQLVESGVGLVQAGGSLRLSCAASGSTFFIYPMGLYRQAPGKERELVAAIRSGGTYYADSVKGRFTISRDNAKNTVYLQMNSLNPEDTAVYYCAARTRGFRYYYWGQGSQVTVSS", "polyreactivity (PSR sort gate)": "high polyreactivity"}, {"sequence": "QVQLVDSGGGLVQAGGSLRLSCAASGRTFPSYGMGWYRQAPGKERELVAPITGGGSTYYADSVKGRFTISRDNAKNTVYLQINSLKPEDTAVYYCAKRPYYNRHYHYRSKYDYWGLGTQVTVSS", "polyreactivity (PSR sort gate)": "high polyreactivity"}, {"sequence": "QVQLVESGGGLVQAGGSLRLSCAASGIIFRSYAMGWYRQAPGKERELVAGITRVGSTYYADSVKGRFTISRDNAKNTVYLQMHSLKPEDTAVYYCNAYNYWSDDYWGQGTQVTVSS", "polyreactivity (PSR sort gate)": "high polyreactivity"}, {"sequence": "QVQLVESGGGLVQAGGSLRLSCAASGYTFPQYAMGWYRQAPGKERELVAAITRRGGSTYYADSVKGRFTISRDNAKNTVYLQMNSLKPEDTAVYYCASDSYPYSLGGDYWGQGTQVTVSS", "polyreactivity (PSR sort gate)": "high polyreactivity"}, {"sequence": "QVQLVESGGCLVQAGGSLRLSCAASGSIFHPYAMGWYRPAPGKERELVAAISKSGGNTYYADSVKGRFTISRDNAKNTVYLQMNSLKPEHTEVYYCAADYYRGRYSDRYDYWGQGTQVTVSS", "polyreactivity (PSR sort gate)": "low polyreactivity"}, {"sequence": "QVQLVESGGGLVQAGGSLRLSCAASGSILDSNAMGWYRQAPGKERELVAAITSGGSTYYADSVKGRFTISRDNAKNTVYLLMNSLKPEDTAVYYCAAAYLGYGAVQPSYEGGYWGQGTQVTVSS", "polyreactivity (PSR sort gate)": "low polyreactivity"}, {"sequence": "QVQLVESGGGLVQAGGSLRLSCAATGSTVDFYAMGWNRQAPRKERELVAAISWSAGSTYYADSVKGRFTISRDNAKNTVYLQMNSLKPEDTAVYYCNADYWGQGTQVTVSS", "polyreactivity (PSR sort gate)": "low polyreactivity"}, {"sequence": "QVQLVESGGGLVQAGGSLRLSCAASGRTFGPYTMGWYRQAPGKEREFVAAINSSGSRTYYADSVKGRFTISRDNAKNTVYLKINSLKPEDTGVYYCAAEAKWYYSWSYPYEGDYWGQGTQVTVSS", "polyreactivity (PSR sort gate)": "low polyreactivity"}, {"sequence": "QVQLVESGGGVVQAGGSLRLSCAASGSTFYANAMGWSRQAPGKERELVAAISSGGSTYYADSVKGRFTISRDNAKNTVYLQMNSLKPDDTAVYYCAKPFYSYRYGFGYWGQGTQVTVSS", "polyreactivity (PSR sort gate)": "low polyreactivity"}, {"sequence": "QVQLVESGGGLVQAGGSLRLSCDASGAIFFSYAMRSYREAPGKERELVATITAGGGSTNYADSVKGRFTISRDNAKNTVYLQMNSLKAEDTAVYYSAAKRLSWHRYGYWGQGSQVTVSS", "polyreactivity (PSR sort gate)": "low polyreactivity"}, {"sequence": "QVQLVESGGGLVQAGGSLRLSCAASGGIFKYNAMGWYRTAPGKERELVAAIRSSGSTNYADSVKGRFTISRDNAKNTVYLQMNSLKPEETAVYYCNVAYGLQPYDYWGQGTQVNVSS", "polyreactivity (PSR sort gate)": "high polyreactivity"}, {"sequence": "QVQLVESGGRLVQAGGSLRISSAASRFILFPYAMGWYRQAPGKERELVAAIRSDDTTNYADSVKGRFTISRDNAKNTVYLQMNSLKPEDTAVYYCATACYSWVSYDYWGQGTQVTVSS", "polyreactivity (PSR sort gate)": "low polyreactivity"}, {"sequence": "QVQHVESGGGLVQAGGSLRLSCAASGRIYAMGWYRQAPGKERELVARITKSGTSTYYADSVKGRFTISRDNAKNTVYLQMNSLKPEDTAVYYCNARYWGYWGDHYDYWGQGTQLTVSS", "polyreactivity (PSR sort gate)": "high polyreactivity"}, {"sequence": "QVQIVESGGGLVQAGGSLRLICAASGSTFGLNAMGWYRQAPGKERELVAAITRSDITNYADSVKGRFTISRDNAKNTVYLKLNSLKPEDTAVYYCNKTPDRHRRYFGYGYWGQGTLVTVSS", "polyreactivity (PSR sort gate)": "low polyreactivity"}, {"sequence": "QVQLVESGGGLVQAGGSLRLSCAASGRTFRYYTMGWYRQAPGKEREFVAALSSTGGTYYADSVKGRFTISRDNAKNTVYLQMNSLKPEDTADYYCNVSSLNSYTSGTTYWGVDYWGQGTQVTVSS", "polyreactivity (PSR sort gate)": "low polyreactivity"}, {"sequence": "QVQLVESGGGLVQAGGSLRLICAASGRTFFRYGMGWYRQAPGKEREFVAAITRSGTTTYYADSVKGRFTISRDNAKNTVYLQMNSLKPEDTAVYYCDAQRAAPVDGKSDYWGQGTQVTLSS", "polyreactivity (PSR sort gate)": "low polyreactivity"}, {"sequence": "QVQLVESGGGLVQAGGSLRLSCAASGRIFYRNAMGWYRQAPGKERELVAAISSSAGSTYYADSVKGRFTISRDNAKNTVYLQMNSLKPEDTAVYYCAAGSGTFVTRYRYGYWGQGTQVTVSS", "polyreactivity (PSR sort gate)": "high polyreactivity"}, {"sequence": "QVQLVESGGGLVQAGGSLRLSCAASGSTFFWYAMGRYRQAPGKERELVAAISKTGGSTYYADSVKGRFTISRDNAKNTFYLQMNSLKPEDTAVYYCNAVPYASKAARSFDYWGQGTQVTVSS", "polyreactivity (PSR sort gate)": "low polyreactivity"}, {"sequence": "QVQLVESGGGLVQAGGSLRLSCAASGLTLYYYAMGWYRQAPGKERELVAAINRGGSTYYSDSVKGRFTISRDNEKNTVYLLMNSLKPEDTAVYYCAVDYGVRDLTYYYCGQGTQVTVSS", "polyreactivity (PSR sort gate)": "low polyreactivity"}, {"sequence": "QVQLEESGGGIVQAGGSLRLSCAASGSNYASNAMGWYRQAPRKERELVAAINSGDSTNYADSVKGRFTISRDNGKNTVYLQMNSLKTEDTAVYYCSRGLEERYDYWGQGTQVTVSS", "polyreactivity (PSR sort gate)": "low polyreactivity"}, {"sequence": "QVQLEESGGGLVQAGGSLRLSCAASGRIFSYNVMGWYRQAPGKEREFVAAITSNDGSTYYADSVKGRFTISRDNAKNTVYLQMNSLKPEDTAVYYCNADFGPVSLKEPFRDDYWGQGTQVNVSS", "polyreactivity (PSR sort gate)": "low polyreactivity"}, {"sequence": "QVQLVESGGGLVQAGGSLRFSCAASGSIFWYNAMGWYRQAPGKERELVARISSSGDSTYYADSVKGRFTISRDNAKNTVYLQMNSLKPEDTAVYYCNVDYWSISESSWGYYTSYDYWGQGTQVTVSS", "polyreactivity (PSR sort gate)": "high polyreactivity"}, {"sequence": "QVQLVESGGGLVQAGGSLRLSCAASGLIFLEYAMGWYRQAPGKEREMVAAISTSGGSTYYADSVKGRFTISRDNAKNTVYLQLNSLTPEDTAVYYCAADPVYNYYFDDGDYWGQGTQVTVSS", "polyreactivity (PSR sort gate)": "low polyreactivity"}, {"sequence": "QVQLVESGGGLVQAGGRLRLSCAASGGIFVSYAMGWYRQSPGKEREMVAAITSGGGTSYADSVKGRFTISRDNAKNTVYLQMNSLKPEDTEVYYCAARFMWSVFGRKGGYWGQGTQVTVSS", "polyreactivity (PSR sort gate)": "low polyreactivity"}, {"sequence": "QVQLLESGGGLVQAGGSLRLSCAASGNTYPVNARGWYRQAPGKERDLVAAISRTGASTYYADSVKGRFTISRDNAKNTVYLQMNSLIPEDTAVYYCAKYLKTPHNRRRVEALGYWGQGTQVTVSS", "polyreactivity (PSR sort gate)": "high polyreactivity"}, {"sequence": "QLQLVQSGGGLVQAGGSLRLSCAASGITSPYAMGWYRQAPGKERELVARNSKGGGSTYYADSVKGRFTISRDNAKNTVYLQMNSLKPEDTAVYYCAADWYNRSRPRYYTRYYYWGQGTQVTVSS", "polyreactivity (PSR sort gate)": "high polyreactivity"}, {"sequence": "QVQLVESGGGLVQAGGSLRLSCAASGRISGSYVMGWYRQAPGKESELVAGISGRGGSTYYADSVKGRFTISRDNAKNTVYLQMYSLKPEDTAVYYCAVVDRTSKGNSYYWGQGTQVTVSS", "polyreactivity (PSR sort gate)": "high polyreactivity"}, {"sequence": "QVQLGESGGGLVQAGGSLRLTCAASGFTFRGYAMGWYRQAPGKEWELVAANSRRGGSTYYADSVKGRFTISRDNAKYTVYLQMNSLKPEETAVYYCNAVGRFYFRFPPNNEYDYWGQGTQVTVSS", "polyreactivity (PSR sort gate)": "high polyreactivity"}, {"sequence": "QVQLVESGGGLVQAGGSLRLSCAASGSIFNPYVMGWYRQAPGKERELVAAISSSGGRTYYADSVKGRFTISRDNAKNTVYLQMNSLKPEDTAVYYCAAIPRQGYDYWGQGTQVTVSS", "polyreactivity (PSR sort gate)": "high polyreactivity"}, {"sequence": "QVQLVESGGGLVQAGGSLRLSCSASGRTSDYYAMGWYRQAPGKERELVAAITSGGSTYYADSVKGRFTISRDNAKITVYFQMNSLKPEDTAVYYCAATWYWGWVFSYTSFDYWGLGTQVTVSS", "polyreactivity (PSR sort gate)": "low polyreactivity"}, {"sequence": "QVQLVESGGGLVQAGGSLRLSCAASGIISSVYAMGWYRQAPGKERELVAAITGSGGNTYYADSVKGRFTISRDNAKNTVSLQMNSLKPEDTAVYYCATDDAIISYELVYQYDHWGQGTQVTVSS", "polyreactivity (PSR sort gate)": "low polyreactivity"}, {"sequence": "QVQLVESGGGLVQAGGSLRLSCAASGGTLGTYAMGWYRQAPGKERELVASIDSGDSTYYADSVKGRFTISRDNAKNTVYLQMNSLKPEDTAVYYCAAAYFRRYTTTWYGYEYWGQGTQVTVSS", "polyreactivity (PSR sort gate)": "low polyreactivity"}, {"sequence": "QVQLVESGGGLVQAGGSLRLSCAASGRTFHIYAMGWYRQAPGKERELVAAIRGRSGSTYYADSVKGRFTISRDNAKNTVYLQMNSLKPEDTAVYYCAAEYWGRYGAPEYDYWGQGTQVTVSS", "polyreactivity (PSR sort gate)": "high polyreactivity"}]}]}
